Legend:
[1] = in vivo; cited from earlier work
Excerpt: Table 1 Literature review of absorbed dose in bone marrow for ^177Lu-PRRT | column: Bone marrow absorbed dose (Gy/GBq) || Recently, the EANM dosimetry committee published its recommendations for the dosimetry of ^177Lu-labeled somatostatin-receptor and PSMA-targeting ligands. For ^177Lu-PRRT, the median value for the red marrow absorbed dose across all the studies is 50 mGy/GBq. The total-body time activity curve (TAC) is generally biphasic, as is the case for the blood TAC. The recommendation for dosimetry is to measure the activity concentration in the blood even if sequential planar or SPECT/CT whole-body imaging is also possible. || The median absorbed dose ranged from 15.3 to 63.9 mGy/GBq depending on the method used, which is coherent with the median literature value of 50 mGy/GBq (range 2 to 150 mGy/GBq) (see Table 1). With the blood-based method, the tri-exponential model gave a higher median absorbed dose than the bi-exponential model, which also gave a higher median dose than the mono-exponential model. The tri-exponential model was not always accurate and sometimes gave an infinite AUC, that is maybe due to the low number of points especially for the image-based method where we only have 4 points.

[2] = human, in vivo; cited from earlier work
Excerpt: Peptide receptor radionuclide therapy (PRRT) with ^177Lu-DOTATATE or ^177Lu-oxodotreotide, a somatostatin analog radiolabeled with ^177Lu, is a recognized therapeutic option for metastatic or symptomatic patients with midgut WHO grade I-II neuroendocrine tumors. […] The standard treatment consists in four intravenous injections of 7.4 GBq of ^177Lu-DOTATATE administered every 8 weeks. This the ...

[3] = parameters: species or system patients; settings: in vivo
Method: A retrospective study was conducted on 59 patients treated in our institution for neuroendocrine tumors (NET) with ^177Lu-DOTATATE (Lutathera ®) between 2019 and 2021. In a standard study, patients received 4 cycles of ^177Lu-DOTATATE at the recommended activity of 7400 MBq during a 30-min intravenous perfusion. The interval between each cycle was eight weeks. The study was declared to the Health Data Hub (number: F20230102114415).
Six to nine blood samples were collected at 0.5, 1, 2, 4, 8, 16, 24, 72 and 144 h post-injection in each patient. Blood was collected in the arm contralateral to that in which ^177Lu-DOTATATE was injected. Blood samples were centrifuged at 1000xg for 10 min at ambient temperature. Radioactivity was measured in 1 ml aliquots of plasma using a WIZARD^2™ 2480-0010 Gamma Counter (Perkin Elmer, MS, USA). A calibration curve with ^177Lu-DOTATATE was established to normalize the data obtained with the gamma counter. Radioactivity-time data were expressed in MBq/L after correction for radioactive decay between the time of the sampling and the measurement according to the equation: C(t)corr=C(t)measured×e^-Ln2/T1/2,177Lu(tmeasured-t) where C(t)corr is ^177Lu-Dotatate concentration at time t corrected for radioactive decay, C(t)measured is the ^177Lu-Dotatate concentration measured at time tmeasured, T1/2,^177Lu is the half-time disintegration of ^177Lu and T0 is the time of ^177Lu-Dotatate injection.
For the blood-based method, the activity concentration was fitted by a mono-, bi- or tri- exponential curve to infinity to estimate the area under the curve (AUC) using an in-house Python program (Python 3.10, numpy and matplotlib libraries). […]
To estimate the influence of the late timepoints for the blood-based method, we estimated the absorbed dose with only the timepoints before 24 h post-injection. For the image-based method, we kept only three timepoints by deleting the last one and compared the absorbed dose to the one calculated with all the timepoints.

## C[C@@H](O)[C@H](NC(=O)[C@@H]1CSSC[C@H](NC(=O)[C@@H](Cc2ccccc2)NC(=O)CN2CCN(CC(=O)O)CCN(CC(=O)O)CCN(CC(=O)O)CC2)C(=O)N[C@@H](Cc2ccc(O)cc2)C(=O)N[C@H](Cc2c[nH]c3ccccc23)C(=O)N[C@@H](CCCCN)C(=O)N[C@@H]([C@@H](C)O)C(=O)N1)C(=O)O [^177Lu-DOTATATE, metal not drawn]
[1]
  Median value for the red marrow absorbed dose across all the studies: 50 mGy/GBq
  Range of literature red marrow absorbed dose: 2-150 mGy/GBq
[2]
  Grade 3 or 4 lymphopenia: 9%
  Grade 3 or 4 thrombopenia: 2%
  Leukemia, treated patients: about 1%
  Myelodysplastic syndrome (MDS), treated patients: about 2%
[3]
  Effective half-life, first phase: 12 to 348 min
  Effective half-life, second phase: 96 to 2080 min
  Median absorbed dose (bone marrow), range over methods and models: 15.3-63.9 mGy/GBq

— article PMC10987460, “Impact of different models based on blood samples and images for bone marrow dosimetry after ^177Lu-labeled somatostatin-receptor therapy” (EJNMMI Physics, 2024)
